Source: paper PMC3308694 (The Journal of Cell Biology, 2012)

Target: the molecule itself
Test: SEC

B1: CC^95–303 with the E191A + K192A mutation (domain or fragment, S. cerevisiae, UniProt Q00402 95-303, looked up)
chain: KDMNFTLELSENLLVECRKLQSSNEAKNEQIKSLKQIKESLSDKIEELTNQKKSFMKELDSTKDLNWDLESKLTNLSMECRQLKELKKKTEKSWNDAAESLKLLKTDLEILTLTKNGMENDLSSQKLHYDKEISELKERILDLNNENDRLLISVSDLTSEINSLQSNRTERIKIQKQLDDAKASISSLKRKVQKKYYQKQHTSDTTVTS
  binding result: binds
